{
  "source": "patent US8591913B2",
  "about": "“Methods of decreasing adipose tissue” (Toru Miyazaki, priority 2009, dated 2013)",
  "molecules": {"B1": {"name": "AIM: apoptosis inhibitor of macrophage, secretory protein with three SRCR domains; recombinant mouse and human AIM in Example 2, mouse AIM in Examples 3-16 (protein)", "chain": "ESPTKVQLVGGAHRCEGRVEVEHNGQWGTVCDDGWDRRDVAVVCRELNCGAVIQTPRGASYQPPASEQRVLIQGVDCNGTEDTLAQCELNYYVFDCSHEEDAGAQCENPDSDLLFIPEDVRLVDGPGHCQGRVEVLHQSQWSTVCKAGWNLQVSKVVCRQLGCGRALLTYGSCNKNTQGKGPIWMGKMSCSGQEANLRSCLLSRLENNCTHGEDTWMECEDPFELKLVGGDTPCSGRLEVLHKGSWGSVCDDNWGEKEDQVVCKQLGCGKSLHPSPKTRKIYGPGAGRIWLDDVNCSGKEQSLEFCRHRLWGYHDCTHKEDVEVICTDFDV"}},
  "system": "obese AIM-/- mice",
  "experiment": "Intravenous administration of AIM to obese AIM-/- mice",
  "format": "in vivo, mouse",
  "protocol": "Obese AIM^−/− mice were produced by giving HFD for 20 weeks or more. Meanwhile, a purified recombinant mouse AIM protein was prepared, and an AIM solution in which the AIM protein had been dissolved at a concentration of 0.2 mg/mL in phosphate buffered saline (PBS, pH 7.4) was prepared as an injection. Then, the AIM injection was administered to the mice from the tail vein twice a week for 4 weeks.\nA dosage was 1 μg per 1 g of the body weight of the mouse. The dosage was determined based on the AIM concentration in the culture medium in the above-mentioned in vitro experiments, by considering that the AIM concentration in the blood of the mouse was a similar level to the AIM concentration in the culture medium.\nIn addition, as a control, the same amount of bovine serum albumin (BSA) was administered via the tail vein in the same schedule to the obese AIM^−/− mice produced by giving HFD for 20 weeks or more. Then, the body weight of the mice after being administered was measured, and the visceral white adipose tissue was collected and its weight was measured.\nFIG. 22A and FIG. 22B show the results of observing adipose tissue sections stained with hematoxylin and eosin (HE) under a microscope.",
  "key": {"[1]": {"conditions": "AIM iv versus albumin, HE-stained sections"}, "[2]": {"conditions": "mouse AIM 1 μg per 1 g body weight, tail vein, twice a week for 4 weeks, versus BSA"}},
  "data": [
    {"molecule": "B1", "values": [
      {"measurement": "accumulation of macrophages in the adipose tissues", "setting": "[1]", "result": "remarkable accumulation"},
      {"measurement": "size of adipocytes in the adipose tissues", "setting": "[1]", "result": "remarkably reduced"},
      {"measurement": "amount of food intake", "setting": "administration of AIM, iv", "result": "No change"},
      {"measurement": "histology of adipose tissues, observed locally (in a spotty pattern)", "setting": "mouse AIM 1 μg per 1 g body weight, tail vein, twice a week for 4 weeks", "result": "shrinkage and lysis of adipocytes"},
      {"measurement": "body weight", "setting": "[2]", "result": "no significant difference"},
      {"measurement": "total weight of the adipose tissue", "setting": "[2]", "result": "no significant difference"},
      {"measurement": "lipolysis in the adipose tissues of the obese mouse", "setting": "systemic intravenous administration of purified AIM protein", "result": "induced lipolysis"}
    ]}
  ]
}
